Laboratory results taken from US20110301073.

Columns and labels:
[1] = test system: TALE test backbone, repeat 5 RVD YG (synthetic (Xanthomonas TALE)); conditions: ELISA
[2] = test system: TALE test backbone, repeat 5 RVD LA (synthetic (Xanthomonas TALE)); conditions: ELISA
[3] = test system: TALE test backbone, repeat 5 RVD QA (synthetic (Xanthomonas TALE)); conditions: ELISA
[4] = test system: TALE test backbone, repeat 5 RVD KG (synthetic (Xanthomonas TALE)); conditions: ELISA
[5] = test system: TALE test backbone, repeat 5 RVD IP (synthetic (Xanthomonas TALE)); conditions: ELISA
[6] = test system: TALE test backbone, repeat 5 RVD AA (synthetic (Xanthomonas TALE)); conditions: ELISA
[7] = test system: TALE test backbone, repeat 5 RVD DH (synthetic (Xanthomonas TALE)); conditions: ELISA
[8] = test system: TALE test backbone, repeat 5 RVD NN (Xanthomonas sp. (engineered)); conditions: RVD NN
[9] = test system: TALE test backbone, repeat 5 RVD DK (synthetic (Xanthomonas TALE)); conditions: ELISA
[10] = test system: TALE test backbone, repeat 5 RVD AE (synthetic (Xanthomonas TALE)); conditions: ELISA
[11] = test system: TALE test backbone, repeat 5 RVD KI (synthetic (Xanthomonas TALE)); conditions: ELISA
[12] = test system: TALE test backbone, repeat 5 RVD IA (synthetic (Xanthomonas TALE)); conditions: ELISA
[13] = test system: TALE test backbone, repeat 5 RVD KD (Xanthomonas sp. (engineered)); conditions: RVD KD
[14] = test system: TALE test backbone, repeat 5 RVD GG (synthetic (Xanthomonas TALE)); conditions: ELISA
[15] = test system: TALE test backbone, repeat 5 RVD AT (synthetic (Xanthomonas TALE)); conditions: ELISA
[16] = test system: TALE test backbone, repeat 5 RVD NA (synthetic (Xanthomonas TALE)); conditions: ELISA
[17] = test system: TALE test backbone, repeat 5 RVD IG (synthetic (Xanthomonas TALE)); conditions: ELISA

## TTGACCATCCT (double strand) [CCA target]
[1]
  binding signal (normalized ELISA): 0.02
[2]
  binding signal (normalized ELISA): 0.02
[3]
  binding signal (normalized ELISA): 0.19
[4]
  binding signal (normalized ELISA): 0.27
[5]
  binding signal (normalized ELISA): 0.13
[6]
  binding signal (normalized ELISA): 0.35
[7]
  binding signal (normalized ELISA): 0.01
[8]
  binding signal (normalized ELISA): 0
[9]
  binding signal (normalized ELISA): 0
[10]
  binding signal (normalized ELISA): 0
[11]
  binding signal (normalized ELISA): 0.11
[12]
  binding signal (normalized ELISA): 0.24
[13]
  binding signal (normalized ELISA): 0.61
[14]
  binding signal (normalized ELISA): 0.35
[15]
  binding signal (normalized ELISA): 0.58
[16]
  binding signal (normalized ELISA): 0.67
[17]
  binding signal (normalized ELISA): 0.02
